Results: publication PMC2064291

Target: vitronectin (urea-purified)
Assay: solid-phase binding assay

Fold reduction in binding, > 5 fold:
soluble uPAR R58A (from UniProt Q03405 23-305) (domain or fragment), soluble uPAR R91A (from UniProt Q03405 23-305) (domain or fragment), soluble uPAR W32A (from UniProt Q03405 23-305) (domain or fragment), soluble uPAR Y92A (from UniProt Q03405 23-305) (domain or fragment), soluble uPAR I63A (from UniProt Q03405 23-305) (domain or fragment)
